Reference: article PMC10243133 (Proceedings of the National Academy of Sciences of the …, 2023)

How the values were obtained:
mutant GLP-1R = conditions: cited from earlier work
[1] = molecular target: GLP-1R endogenously expressed in the rat pancreatic INS-1E β-cell line (rat (endogenous in INS-1E)) (UniProt P32301)
GLP-1R endogenously expressed in the rat pancreatic INS-1E β-cell line (rat (endogenous in INS-1E)), sequence (P32301 22-463): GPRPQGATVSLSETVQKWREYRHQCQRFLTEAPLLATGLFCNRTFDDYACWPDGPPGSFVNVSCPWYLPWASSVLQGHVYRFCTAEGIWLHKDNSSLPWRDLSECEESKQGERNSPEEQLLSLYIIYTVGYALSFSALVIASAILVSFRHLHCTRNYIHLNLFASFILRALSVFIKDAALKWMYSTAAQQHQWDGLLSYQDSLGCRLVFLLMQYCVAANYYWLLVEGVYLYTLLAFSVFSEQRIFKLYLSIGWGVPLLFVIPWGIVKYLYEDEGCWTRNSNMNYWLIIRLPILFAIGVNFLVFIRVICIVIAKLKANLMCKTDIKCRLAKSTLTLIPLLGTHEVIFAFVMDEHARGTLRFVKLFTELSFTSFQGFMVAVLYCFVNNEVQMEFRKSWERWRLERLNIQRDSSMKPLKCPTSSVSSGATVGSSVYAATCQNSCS

Row | Molecule | allosteric activity in GLP-1R binding site mutants (mutant GLP-1R) | EC50 of peptide activity in rat INS-1E cells with 3 μM compound 3-20 (Emax 63%) [1] [µM] | EC50 of peptide activity in rat INS-1E cells with 3 μM compound 3-24 (Emax 60%) [1] [µM]
1 | COc1ccc(Cl)c([C@@H](C)n2cnc3ccc(-c4ccccc4[C@H]4CCCCN4)cc32)c1Cl [LSN3160440] | only abolished in a triple mutant | – | –
2 | GLP-1(9-36) (peptide) | – | 0.115 | 0.1
